Results taken from patent US20220064250A1 (AKSTON BIOSCIENCES, published 2022).

Columns and labels:
[1] = target: T1, human insulin receptor on human IM-9 cells (human, UniProt P06213 28-1382); test: IM-9 cells, competition with biotinylated RHI, flow cytometry, 4 C (Table 3, same data as Table 7)
T1 construct: whole, on cells; Endogenous receptor on IM-9 cells; assay run at 4 C; also called IR
Description: (§1) 40 μL of an IM-9 cell suspension (8×10^6 cells/mL) was then added to each well by multichannel pipette, mixed again gently and incubated on ice for 30 min to allow competitive binding on the insulin receptor on IM-9 cells. Cells were then washed twice with 275 μL of ice-cold FACS wash buffer (HBSS/2 mM EDTA/0.1% Na-azide+0.5% horse serum) by centrifuging the V-bottom plate at 3000 rpm for 3 min and aspirating the supernatant. Cells were then resuspended in 40 μL of FACS staining medium containing 1:100 diluted Streptavidin-PE (Life Technologies) for 20 min on ice. Cells were then washed once with 275 μL of ice-cold FACS buffer and finally fixed with 3% paraformaldehyde for 10 min at room temp. Cells were then washed once with 275 μL of ice-cold FACS buffer and resuspended in 250 μl of FACS buffer for analysis.
The V-bottom plates containing cells were then analyzed on a Guava 8-HT flow cytometer (Millipore). Biotinylated-RHI binding to insulin receptor was quantitated by the median fluorescence intensity (MFI) of the cells on the FACS FL-2 channel for each concentration of the test compound. Control wells were labeled only with biotinylated-RHI and were used to calculate the percent (%) inhibition resulting from each test compound concentration. The % inhibition by test compounds of biotinylated-RHI binding on IM-9 cells was plotted against log concentrations of the test compound, and the resulting IC50 values were calculated using GraphPad Prism (GraphPad Software, La Jolla, Calif.) for the test compounds. Lower IC50 values of the test compound therefore indicate greater levels of biotinylated-RHI inhibition at lower concentrations indicating stronger binding of the insulin-Fc fusion protein to the insulin receptor. A control compound, such as unlabeled recombinant human insulin (RHI) was also used as an internal standard to generate an RHI IC50 against which a given compound IC50 could be ratioed (IC50(compound)/IC50(RHI)). […]

[2] = target: T1, human insulin receptor on human IM-9 …; test: IM-9 cells, competition with biotinylated RHI, flow cytometry, 4 C
Description: as §1
The V-bottom plates containing cells were then analyzed on a Guava 8-HT flow cytometer (Millipore). Biotinylated-RHI binding to insulin receptor was quantitated by the median fluorescence intensity (MFI) of the cells on the FACS FL-2 channel for each concentration of the test compound. […] The % inhibition by test compounds of biotinylated-RHI binding on IM-9 cells was plotted against log concentrations of the test compound, and the resulting IC50 values were calculated using GraphPad Prism (GraphPad Software, La Jolla, Calif.) for the test compounds. […]

[3] = target: T1, human insulin receptor on human IM-9 …; test: IM-9 cells, competition with biotinylated RHI, flow cytometry, 4 C (Table 5, same data as Table 9)
Description: (§2) Cultures of IM-9 cells were centrifuged at 250×g (˜1000 rpm) for 10 min to pellet the cells. Cells were washed once with HBSS or PBS buffer, resuspended in cold FACS staining medium (HBSS/2 mM EDTA/0.1% Na-azide+4% horse serum) to a concentration of 8×10^6 cells/mL and kept on ice or 4° C. until test solutions were made. The insulin-Fc protein was diluted in FACS buffer in 1:3 serial dilutions as 2× concentrations in 1.2 mL tubes (approx. 60 μL volume of each dilution), and the solutions were kept cold on ice until ready for pipetting.
(§3) Biotinylated-RHI was diluted in FACS staining medium to a concentration of 1.25 μg/mL. 40 μL of the serially diluted test compound and 8 μL of 1.25 μg/mL Biotin-RHI were added into each well of a V bottom microtiter plate, mixed by slow vortexing, and placed on ice. […]
(§4) The V-bottom plates containing cells were then analyzed on a Guava 8-HT flow cytometer (Millipore). Biotinylated-RHI binding to insulin receptor was quantitated by the median fluorescence intensity (MFI) of the cells on the FACS FL-2 channel for each concentration of the test compound. […] The % inhibition by test compounds of biotinylated-RHI binding on IM-9 cells was plotted against log concentrations of the test compound, and the resulting IC50 values were calculated using GraphPad Prism (GraphPad Software, La Jolla, Calif.) for the test compounds.

[4] = target: T1, human insulin receptor on human IM-9 …; test: IM-9 cells, competition with biotinylated RHI, flow cytometry, 4 C; remark: listed apart in the source
Description: as §2, §3, §4

T1 sequence (P06213 28-1382): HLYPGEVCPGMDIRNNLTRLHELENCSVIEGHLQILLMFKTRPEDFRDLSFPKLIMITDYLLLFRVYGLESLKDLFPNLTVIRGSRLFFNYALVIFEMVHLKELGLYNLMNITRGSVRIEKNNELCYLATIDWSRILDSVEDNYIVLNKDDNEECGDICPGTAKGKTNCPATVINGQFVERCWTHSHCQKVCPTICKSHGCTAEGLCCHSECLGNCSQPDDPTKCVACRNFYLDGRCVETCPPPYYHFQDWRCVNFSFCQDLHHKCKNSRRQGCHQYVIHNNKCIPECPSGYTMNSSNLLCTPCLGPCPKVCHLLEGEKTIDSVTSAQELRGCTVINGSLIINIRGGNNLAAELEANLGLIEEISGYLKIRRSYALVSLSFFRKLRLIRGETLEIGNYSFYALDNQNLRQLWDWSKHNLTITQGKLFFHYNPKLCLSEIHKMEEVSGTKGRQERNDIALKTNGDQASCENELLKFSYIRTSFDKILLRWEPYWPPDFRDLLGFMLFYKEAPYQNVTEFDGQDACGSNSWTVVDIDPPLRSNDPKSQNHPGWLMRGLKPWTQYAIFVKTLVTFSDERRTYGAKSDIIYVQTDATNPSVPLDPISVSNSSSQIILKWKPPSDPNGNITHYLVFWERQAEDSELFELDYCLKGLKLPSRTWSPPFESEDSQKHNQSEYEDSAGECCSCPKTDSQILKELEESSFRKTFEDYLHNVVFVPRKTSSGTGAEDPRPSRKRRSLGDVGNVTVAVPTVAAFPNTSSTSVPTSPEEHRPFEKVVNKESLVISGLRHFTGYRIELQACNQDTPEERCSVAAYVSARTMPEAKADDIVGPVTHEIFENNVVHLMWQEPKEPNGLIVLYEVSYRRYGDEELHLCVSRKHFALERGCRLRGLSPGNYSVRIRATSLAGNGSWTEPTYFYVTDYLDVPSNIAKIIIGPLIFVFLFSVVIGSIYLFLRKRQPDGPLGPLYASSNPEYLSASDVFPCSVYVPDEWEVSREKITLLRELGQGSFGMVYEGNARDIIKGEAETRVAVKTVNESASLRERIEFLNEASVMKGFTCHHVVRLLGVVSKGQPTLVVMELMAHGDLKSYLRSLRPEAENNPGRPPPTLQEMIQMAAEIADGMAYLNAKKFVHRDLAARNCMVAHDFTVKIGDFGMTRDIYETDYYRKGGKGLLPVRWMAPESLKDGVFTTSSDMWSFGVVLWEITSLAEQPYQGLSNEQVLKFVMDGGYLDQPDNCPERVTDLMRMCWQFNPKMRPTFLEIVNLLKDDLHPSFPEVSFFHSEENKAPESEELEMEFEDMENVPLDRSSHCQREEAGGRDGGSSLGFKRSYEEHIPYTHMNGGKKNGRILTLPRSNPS

IC50 [1] [nM] | IC50 [2] [nM] | IC50 [3] [nM] | IC50 [4] [nM] | Binder
28 | 28 | – | – | insulin-Fc fusion protein of SEQ ID NO: 41 (insulin polypeptide SEQ ID NO: 16, linker SEQ ID NO: 25, canine IgGB Fc fragment SEQ ID NO: 29) (Fc fusion, Disulfide-linked homodimer made in HEK293 cells; 93% homodimer; native cNg glycosylation site kept) FVNQHLCGSDLVEALALVCGERGFFYTDPTGGGPRRGIVEQCCHSICSLYQLENYCNGGGGAGGGGDCPKCPAPEMLGGPSVFIFPPKPKDTLLIARTPEVTCVVVDLDPEDPEVQISWFVDGKQMQTAKTQPREEQFNGTYRVVSVLPIGHQDWLKGKQFTCKVNNKALPSPIERTISKARGQAHQPSVYVLPPSREELSKNTVSLTCLIKDFFPPDIDVEWQSNGQQEPESKYRTTPPQLDEDGSYFLYSKLSVDKSRWQRGDTFICAVMHEALHNHYTQESLSHSPG
– | – | 145 | 145 | insulin-Fc fusion protein of SEQ ID NO: 47 (insulin polypeptide SEQ ID NO: 16, linker SEQ ID NO: 25, canine IgGB Fc fragment with cNg-S) (Fc fusion, Non-glycosylated homodimer made in HEK293 cells; also called cNg-NB139-S) FVNQHLCGSDLVEALALVCGERGFFYTDPTGGGPRRGIVEQCCHSICSLYQLENYCNGGGGAGGGGDCPKCPAPEMLGGPSVFIFPPKPKDTLLIARTPEVTCVVVDLDPEDPEVQISWFVDGKQMQTAKTQPREEQFSGTYRVVSVLPIGHQDWLKGKQFTCKVNNKALPSPIERTISKARGQAHQPSVYVLPPSREELSKNTVSLTCLIKDFFPPDIDVEWQSNGQQEPESKYRTTPPQLDEDGSYFLYSKLSVDKSRWQRGDTFICAVMHEALHNHYTQESLSHSPG
2730 | 2730 | – | – | insulin-Fc fusion protein of SEQ ID NO: 33 (insulin polypeptide SEQ ID NO: 16, linker SEQ ID NO: 25, canine IgGA Fc fragment SEQ ID NO: 28) (Fc fusion, Disulfide-linked homodimer made in HEK293 cells; the preparation was only 24% homodimer (highly aggregated)) FVNQHLCGSDLVEALALVCGERGFFYTDPTGGGPRRGIVEQCCHSICSLYQLENYCNGGGGAGGGGRCTDTPPCPVPEPLGGPSVLIFPPKPKDILRITRTPEVTCVVLDLGREDPEVQISWFVDGKEVHTAKTQSREQQFNGTYRVVSVLPIEHQDWLTGKEFKCRVNHIDLPSPIERTISKARGRAHKPSVYVLPPSPKELSSSDTVSITCLIKDFYPPDIDVEWQSNGQQEPERKHRMTPPQLDEDGSYFLYSKLSVDKSRWQQGDPFTCAVMHETLQNHYTDLSLSHSPG

More lines, now with the values behind:

Binder | IC50 [1] [nM] | IC50 [2] [nM] | IC50 [3] [nM] | IC50 [4] [nM]
insulin-Fc fusion protein of SEQ ID NO: 51 (insulin polypeptide SEQ ID NO: 16, linker SEQ ID NO: 25, canine IgGB Fc fragment with des hinge D and cNg-K, i.e. … (Fc fusion, Non-glycosylated homodimer made in HEK293 cells; also called cNg-NB138-K) FVNQHLCGSDLVEALALVCGERGFFYTDPTGGGPRRGIVEQCCHSICSLYQLENYCNGGGGAGGGGCPKCPAPEMLGGPSVFIFPPKPKDTLLIARTPEVTCVVVDLDPEDPEVQISWFVDGKQMQTAKTQPREEQFKGTYRVVSVLPIGHQDWLKGKQFTCKVNNKALPSPIERTISKARGQAHQPSVYVLPPSREELSKNTVSLTCLIKDFFPPDIDVEWQSNGQQEPESKYRTTPPQLDEDGSYFLYSKLSVDKSRWQRGDTFICAVMHEALHNHYTQESLSHSPG | – | – | 147 | 147
insulin-Fc fusion protein of SEQ ID NO: 45 (insulin polypeptide SEQ ID NO: 16, linker SEQ ID NO: 25, canine IgGD Fc fragment SEQ ID NO: 31) (Fc fusion, Homodimer made in HEK293 cells; the preparation was highly aggregated (12% homodimer)) FVNQHLCGSDLVEALALVCGERGFFYTDPTGGGPRRGIVEQCCHSICSLYQLENYCNGGGGAGGGGCISPCPVPESLGGPSVFIFPPKPKDILRITRTPEITCVVLDLGREDPEVQISWFVDGKEVHTAKTQPREQQFNSTYRVVSVLPIEHQDWLTGKEFKCRVNHIGLPSPIERTISKARGQAHQPSVYVLPPSPKELSSSDTVTLTCLIKDFFPPEIDVEWQSNGQPEPESKYHTTAPQLDEDGSYFLYSKLSVDKSRWQQGDTFTCAVMHEALQNHYTDLSLSHSPG | > 5000 | – | – | –
